{"source": "patent US20240150744A1", "about": "“ACYL ACTIVATING ENZYME AND A TRANSGENIC CELL, TISSUE, AND ORGANISM COMPRISING SAME” (YEDA RESEARCH AND DEVELOPMENT CO. LTD., priority 2021, published 2024)", "assay": "AAE enzyme assay (acyl-CoA synthetase assay) of purified recombinant HuAAE proteins with an array of substrates", "format": "biochemical", "details": "purified recombinant enzyme from E. coli, UPLC-MS/MS peak area (FIG. 6); for activity towards butyric acid (formation of butyryl CoA): substrate butyric acid", "method": "FIG. 6 includes vertical bar graphs showing recombinant enzyme assays of purified H. umbraculigerum acyl activating enzyme (HuAAE) proteins produced in Escherichia coli cells. Peak area is shown. Various alkyl (short-and medium-chain fatty acids) and aromatic (cinnamic and coumaric acids) substrates were used in the enzyme assays.\nAll AAE genes from H. umbraculigerum were individually cloned into the pET28b vector and expressed in E. coli BL21 (DE3) cells. Bacterial cells were grown in LB medium at 37° C. When cultures reached Absorbance 600=0.6, protein expression was induced with 200 μM of isopropyl-1-thio-β-d-galactopyranoside (IPTG) at 15° C., for 24 h. Bacterial cells were lysed by sonication in 50 mM Tris-HCl pH 7.5, 500 mM NaCl, 1 mM PMSF, 10% glycerol and protease inhibitor cocktail (Sigma Aldrich). An aliquot of whole-cell extract was kept for further analysis. Soluble protein was purified on Ni-NTA agarose beads (Adar Biotech) and eluted with 300 mM imidazole in buffer containing 50 mM NaH2PO4 pH-7.5 and 300 mM NaCl. The whole-cell extract, and the eluted fractions were analyzed by SDS-PAGE stained with InstatBlue.\nAcyl-CoA synthetase assays were performed in a 20 μl reaction mix that contained 0.1 μg recombinant AAE, 50 mM HEPES pH 9, 8 mM ATP, 10 mM MgCl2, 0.5 mM CoA and 4 mM sodium hexanoate for 10 min at 40° C. Reactions were terminated with 2 μl of 1 M HCl and stored on ice until analysis. After centrifugation at 15 000 g for 5 min at 4° C., the samples were diluted 1:100 in water and analyzed by UPLC-MS/MS (Stout et al., 2012). injections were performed on a UPLC (Waters) connected to a Triple Quad detector (TQ-S, Waters) in multiple reaction monitoring (MRM) mode. The chromatographic separation was achieved using a similar column as previously described. The mobile phase consisted of an aqueous buffer pH 7.0 (10 mM Ammonium Acetate, 5 mM NH4HCO2, phase A) and acetonitrile (phase B). The flow rate was 0.3 ml min^−1, and the column temperature was kept at 25° C. Compounds were analyzed using a 15 min multistep gradient method: initial conditions were 1% B raised to 35% B until 10.5 min, and then raised to 100% B until 11 min, held at 100% B for 1 min, decreased to 1% B until 12.5 min, and held at 1% B until 15 min for re-equilibration of the system. The instrument was operated in positive mode with a capillary voltage of 3.0 kV, and a cone voltage of 50 V. Metabolite identity was confirmed with authentic standards (Sigma Aldrich). Two different transitions were used for analysis of: acetyl-CoA (810.52>303.30, 27.0V; 810.52>428.25, 24.0V); butyryl-CoA (838.58>331.30, 28.0 V; […]); hexanoyl-CoA (866.65>359.40, 28.0 V; 866.65 >428.25, 26.0 V); octanoyl-CoA (894.65>387.55, 30.0 V; 894.65>428.25, 28.0 V); coumaroyl-CoA (914.59>407.37, 30.0 V; 914.59>428.25, 28.0 V); cinnamoyl-CoA (898.59>391.37, 30.0 V; 898.59>428.25, 28.0 V).\nNext, the inventors individually recombinantly expressed six of the eleven AAEs, each in E. coli, purified respective proteins, and examined their activity using array of substrates (acetic acid, butyric acid, hexanoic acid, octanoic acid, cinnamic acid and coumaric acid)."}
{"molecule": "HuAAE3: H. umbraculigerum acyl activating enzyme, recombinantly expressed in E. coli and purified (protein) MTEEEKNKAESMGIKTYAWSDFLHLGSKNPSELQTPKATDICTIMYTSGTSGDPKGVILTHENATTNIRGVDLFMEQFEDKMTVDDVYISFLPLAHILDRMIEEYFFRSGASVGFYHGDINALKEDLAELKPTFLAGVPRVLEKIHEGVLKGLEEVNPRRRKIFSILYNHKLKYMKAGYKHKYASPLADLLAFRKVKNRLGGRIRLMVSGGAPLSTEIEEFMRVTSCAFVAQGYGLTETCGLATLGFPDEMCMIGTVGSPFVYTELRLEEVSDMGYDPLANPPRGEICVKGKTPFAGYYKNPELTNEVMKDGWFHTGDIGEMQPNGVLKIIDRKKHLIKLSQGEYIALEYLEKVYCITPILEDIWVYGDSFKSSLVAVAVPNKENAEKWADQKGLKVSYSELCTLTQFRDYIQSELKSTAERNKLRGFEHIKAIIVEPRTFEGDQELLTATMKKRRNKLLNRYKEGIDNLYKNLAANKR", "values": [{"measurement": "activity against acetic acid (formation of acetyl CoA)", "setting": "substrate acetic acid", "value": "great activity"}]}
{"molecule": "HuAAE6: H. umbraculigerum acyl activating enzyme, recombinantly expressed in E. coli and purified; similar to long-chain acyl-CoA synthetases (protein) MSVYTVKVEDSRAASGETPSAGPVYRCIYAKDALMELPPGYESPWDFFSESVKRNPKNPALGRRQVIDGKAGGYSWLSYQEAYNSALRIASAIRSRSVNPGDRCGIYGPNCPEWIISMEACNSNGITYVPLYDTLGANAVEYIINHAEISLVFVQENKLSAILSCLPNCSSNLKTIVSFGKFSESQKNEAMEHGVDCFSWEEFSSMGNLEDELPAKNKTDICTIMYTSGTTGEPKGVVLSNRAFMSEVLSMHELLIETDKPGTEEDTYFSFLPLAHIFDQIMETYFIYSGASIGFWQGDIRYLIEDLLVLQPTIFCGVPRVYDRIYTGIMAKISTGGAIRKALFDFAYNYKLRNLEKGIQQDKSAPLLDKLVFDKIKQGFGGRVRLMLSGAAPLPKHVEEFLRVTCCTVLSQGYGLTESCGGCFTSIANVYSMIGTVGVPMTTIEARLESVPEMGYDALSSVPCGEICLRGNTLFSGYHKRDDLTDAVLVDGWFHTGDIGEWQADGAMKIIDRKKNIFKLSQGEYVAVESIESTYSRCPLVTSIWVYGNSFESFLVAVVVPDRVAVEEFAAKNNESGDYASLCKNPNVRKYVLEELNAEAQCNKLRGFEMLKAVHLDPVPFDFERDLITPTFKLKRQQLLKYYKDCVEQLYAEAKTSKK", "values": [{"measurement": "activity towards cinnamic acid (formation of cinnamoyl CoA)", "setting": "substrate cinnamic acid", "value": "reacted"}, {"measurement": "activity towards coumaric acid (formation of coumaroyl CoA)", "setting": "substrate coumaric acid", "value": "reacted"}, {"measurement": "activity towards hexanoic acid", "setting": "substrate hexanoic acid", "value": "very high activity"}, {"measurement": "activity towards octanoic acid", "setting": "substrate octanoic acid", "value": "very high activity"}]}
{"molecule": "HuAAE4: H. umbraculigerum acyl activating enzyme, recombinantly expressed in E. coli and purified; great homology to CsAAE1 (protein) MVYKSLNSISISDIVNLGISPETATQLHQKLTEIIQIYGFDAPQTWTQISTRILHPDLPFCFHQMMYYGCYVDFGPDPPAWSPDPKDAKLTNIGSLLERRGKEFLGPSYKDPISSYSALQEFSALNLEVFWKTILDEMNITFSVPPKRILVDDLSKESQLLHPGGRWLPGAYVNPARNCLSLSSKRRLSDIAVIWRDEGNDDMPVNKMTFQQLRSEVWLVAYALDTLGVEKGSAIAIDMPMDVKSVVIYLAIVLAGYVVVSIADSFAAGEISTRLVLSKAKAIFTQDLIIRGDRSHPLYSRVVDAQSPLAIVIPTRGSSFSIKLRDGDISWHDFLERANTYRNVEFVAVERPVEAFSNILFSSGTTGEPKAIPWTLATPFKAGADAWCHMDVHKGDVVAWPTNLGWMMGPWLIYASLLNGGSLALYNGSPLTSGFAKFVQDAKVTLLGVIPSIVRAWRTNNSTAGFDWSTIRCFGSTGEASNTDECLWLMGRAHYKPVIEYCGGTEIGGGFITGSLLQPQCLSAFSTPSLGCKLLILGEDGIPIPQNAPGIGELALNPLMFGASSTLLNANHYDVYFKGMPSWNGKVLRRHGDVFERTSKGYYRAHGRADDTMNLGGIKVSSVEIERVCNSIDDRILETAAIGVTPSGGGPERLVIVVAFKDGSGSKPDLIKLKVTLNSALQKNLNPLFKVSDVVPFPSLPRTATNKVMRRVLRQQLTQIGQNSKL", "values": [{"measurement": "activity towards butyric acid (formation of butyryl CoA)", "value": "efficiently produced butyryl CoA"}]}
{"molecule": "HuAAE2: H. umbraculigerum acyl activating enzyme, recombinantly expressed in E. coli and purified (protein) MDALRKPNSANSSPLTPIGFLERAAVVFANSPSIVYNNLIYTWSDTFHRCLRLASSISRLAIRKGDVVSVLAPNIPAIYELHFGITMTGAIINTINTRLDARTISILLCHSESKLVFVDYQLTRLIREAVSLMPDACVPPQLVLIVDDGHNLSLLSDQFINTYEAMVETGDPGFNWVRPDSDWDPLTLNYTSGTTSSPKGVVNSHRGSFIVAFDSLLEWHVPKQPIMLWTLPMFHANGWSFVWGMAAVGGTNVCLRKFDATIIYDTIRNHHVTHMCGAPVVLNMLSEGKPLEHTVHIMTAGAPPPAAVLLRTESLGFEVTHGFGMTETGGLVVSCSWKKEWNRLPVTEKARLKARQGVRTLGMTEVDIVDPESGVSVTRDGLTQGELVLRGGSIMLGYLKDPETTNKSVKNGWFYTGDVAVMHPDGYLEIKDRSKDVIISGGENISSVEVESILYQHPAINEAAVVGRPDEFWGESPCAFVSLKDDNGKVAVPTADEIMKFCKGKLPGYMVPKSVVFKKDLPKTSTGKIQKYVLRKLAKDLGFAVKSRI", "values": [{"measurement": "activity towards butyric acid (formation of butyryl CoA)", "value": "efficiently produced butyryl CoA"}]}
